Read-outs that look alike come from different tables or passages of the source.
Assays:
GST-Rab8A (dog Rab8A) = GST-Rab8A (dog Rab8A) (UniProt P61007)
GST-Rab8B [GST: P08515] [1] = test system: GST-Rab8B [GST: P08515]
GST-Rab10 (human Rab10) [2] = test system: T1, GST-Rab10 (human Rab10)
T1 sequence: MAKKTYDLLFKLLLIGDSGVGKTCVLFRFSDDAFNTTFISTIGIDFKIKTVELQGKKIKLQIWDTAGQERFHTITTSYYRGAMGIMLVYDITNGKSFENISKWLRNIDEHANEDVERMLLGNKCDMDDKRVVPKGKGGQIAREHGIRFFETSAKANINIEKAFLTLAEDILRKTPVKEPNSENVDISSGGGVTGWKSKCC

GST-Rab2A [GST: P08515] [3] = test system: GST-Rab2A [GST: P08515]
[4] = target: T2, GST-Rab8A (dog Rab8A), P61007
T2 chain: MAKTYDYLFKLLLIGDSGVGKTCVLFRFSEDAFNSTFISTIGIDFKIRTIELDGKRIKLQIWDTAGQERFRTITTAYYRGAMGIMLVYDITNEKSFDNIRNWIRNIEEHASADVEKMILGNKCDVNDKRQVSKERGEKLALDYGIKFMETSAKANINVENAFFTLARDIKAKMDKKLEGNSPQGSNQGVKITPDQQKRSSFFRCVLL

[5] = target: GST-Rab14 (mouse Rab14), Q91V41
GST-Rab2A [GST: P08515] [6] = target: GST-Rab2A [GST: P08515]; remark: listed apart in the source
GST-Rab8B [GST: P08515] [7] = target: GST-Rab8B [GST: P08515]; remark: listed apart in the source
GST-Rab10 (human Rab10) [8] = target: T3, GST-Rab10 (human Rab10)
T3 chain: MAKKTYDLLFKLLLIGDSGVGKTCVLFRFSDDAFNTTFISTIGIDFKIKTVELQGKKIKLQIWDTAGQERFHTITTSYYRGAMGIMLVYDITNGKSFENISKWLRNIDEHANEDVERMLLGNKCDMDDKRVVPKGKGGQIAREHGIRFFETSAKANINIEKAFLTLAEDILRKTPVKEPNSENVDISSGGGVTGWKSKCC

Sequence of GST-Rab14 (mouse Rab14), Q91V41 (Q91V41 whole entry, looked up): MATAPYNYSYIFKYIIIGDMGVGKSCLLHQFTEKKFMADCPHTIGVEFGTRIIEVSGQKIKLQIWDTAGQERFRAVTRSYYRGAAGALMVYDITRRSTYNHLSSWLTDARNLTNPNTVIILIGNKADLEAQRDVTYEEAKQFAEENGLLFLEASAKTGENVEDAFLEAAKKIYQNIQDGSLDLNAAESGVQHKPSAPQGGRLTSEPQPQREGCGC

With “GST-GAP Arg/Lys (GST-GAP domain with Arg973 mutated to Lys)” the “hydrolysis of Rab-bound [α^32P]GTP to GDP (thin layer chromatography)” value (from here on “hydrolysis of Rab-bound [α^32P]GTP”) (GST-Rab8A (dog Rab8A)) was “For each of Rab 2A, 8A, 8B, 10, and 14, the GAP Arg/Lys construct exhibited no significant activity”, the “hydrolysis of Rab-bound [α^32P]GTP” value (GST-Rab8B [GST: P08515] [1]) was “For each of Rab 2A, 8A, 8B, 10, and 14, the GAP Arg/Lys construct exhibited no significant activity” and the “hydrolysis of Rab-bound [α^32P]GTP” value (GST-Rab10 (human Rab10) [2]) was “For each of Rab 2A, 8A, 8B, 10, and 14, the GAP Arg/Lys construct exhibited no significant activity”. For the same molecule, the “hydrolysis of Rab-bound [α^32P]GTP” value (GST-Rab2A [GST: P08515] [3]) was “For each of Rab 2A, 8A, 8B, 10, and 14, the GAP Arg/Lys construct exhibited no significant activity”.

B1: recombinant full-length FLAG-tagged AS160 (protein)
chain: MEPPSCIQDEPFPHPLEPEPGVSAQPGPGKPSDKRFRLWYVGGSCLDHRTTLPMLPWLMAEIRRRSQKPEAGGCGAPAAREVILVLSAPFLRCVPAPGAGASGGTSPSATQPNPAVFIFEHKAQHISRFIHNSHDLTYFAYLIKAQPDDPESQMACHVFRATDPSQVPDVISSIRQLSKAAMKEDAKPSKDNEDAFYNSQKFEVLYCGKVTVTHKKAPSSLIDDCMEKFSLHEQQRLKIQGEQRGPDPGEDLADLEVVVPGSPGDCLPEEADGTDTHLGLPAGASQPALTSSRVCFPERILEDSGFDEQQEFRSRCSSVTGVQRRVHEGSQKSQPRRRHASAPSHVQPSDSEKNRTMLFQVGRFEINLISPDTKSVVLEKNFKDISSCSQGIKHVDHFGFICRESPEPGLSQYICYVFQCASESLVDEVMLTLKQAFSTAAALQSAKTQIKLCEACPMHSLHKLCERIEGLYPPRAKLVIQRHLSSLTDNEQADIFERVQKMKPVSDQEENELVILHLRQLCEAKQKTHVHIGEGPSTISNSTIPENATSSGRFKLDILKNKAKRSLTSSLENIFSRGANRMRGRLGSVDSFERSNSLASEKDYSPGDSPPGTPPASPPSSAWQTFPEEDSDSPQFRRRAHTFSHPPSSTKRKLNLQDGRAQGVRSPLLRQSSSEQCSNLSSVRRMYKESNSSSSLPSLHTSFSAPSFTAPSFLKSFYQNSGRLSPQYENEIRQDTASESSDGEGRKRTSSTCSNESLSVGGTSVTPRRISWRQRIFLRVASPMNKSPSAMQQQDGLDRNELLPLSPLSPTMEEEPLVIFLSGEDDPEKIEERKKSKELRSLWRKAIHQQILLLRMEKENQKLEGASRDELQSRKVKLDYEEVGACQKEVLITWDKKLLNCRAKIRCDMEDIHTLLKEGVPKSRRGEIWQFLALQYRLRHRLPNKQQPPDISYKELLKQLTAQQHAILVDLGRTFPTHPYFSVQLGPGQLSLFNLLKAYSLLDKEVGYCQGISFVAGVLLLHMSEEQAFEMLKFLMYDLGFRKQYRPDMMSLQIQMYQLSRLLHDYHRDLYNHLEENEISPSLYAAPWFLTLFASQFSLGFVARVFDIIFLQGTEVIFKVALSLLSSQETLIMECESFENIVEFLKNTLPDMNTSEMEKIITQVFEMDISKQLHAYEVEYHVLQDELQESSYSCEDSETLEKLERANSQLKRQNMDLLEKLQVAHTKIQALESNLENLLTRETKMKSLIRTLEQEKMAYQKTVEQLRKLLPADALANCDLLLRDLNCNPNNKAKIGNKP
B1 was tested, and the “GAP assay with protein attached to anti-FLAG beads” value (“GAP assay with protein attached” for short) [4] was “The full-length AS160 exhibited no significant activity above that of the Arg973Lys mutant with Rabs 2A, 8A, and 14 as substrates”, the “GAP assay with protein attached” value [5] was “The full-length AS160 exhibited no significant activity above that of the Arg973Lys mutant with Rabs 2A, 8A, and 14 as substrates” and the “GAP assay with protein attached” value (GST-Rab2A [GST: P08515] [6]) was “The full-length AS160 exhibited no significant activity above that of the Arg973Lys mutant with Rabs 2A, 8A, and 14 as substrates”.

B2: AS160 GAP domain-GST fusion protein (protein)
chain: GASRDELQSRKVKLDYEEVGACQKEVLITWDKKLLNCRAKIRCDMEDIHTLLKEGVPKSRRGEIWQFLALQYRLRHRLPNKQQPPDISYKELLKQLTAQQHAILVDLGRTFPTHPYFSVQLGPGQLSLFNLLKAYSLLDKEVGYCQGISFVAGVLLLHMSEEQAFEMLKFLMYDLGFRKQYRPDMMSLQIQMYQLSRLLHDYHRDLYNHLEENEISPSLYAAPWFLTLFASQFSLGFVARVFDIIFLQGTEVIFKVALSLLSSQETLIMECESFENIVEFLKNTLPDMNTSEMEKIITQVFEMDISKQLHAYEVEYHVLQDELQESSYSCEDSETLEKLERANSQLKRQNMDLLEKLQVAHTKIQALESNLENLLTRETKMKSLIRTLEQEKMAYQKTVEQLRKLLPADALANCDLLLRDLNCNPNNKAKIGNKP
B2 was tested, and the “hydrolysis of Rab-bound [α^32P]GTP” value (GST-Rab8B [GST: P08515] [7]) was “the GAP domain markedly stimulated the hydrolysis of [α^32P]GTP bound to Rabs 2A, 8A, 8B, 10, and 14”, the “hydrolysis of Rab-bound [α^32P]GTP” value (GST-Rab10 (human Rab10) [8]) was “the GAP domain markedly stimulated the hydrolysis of [α^32P]GTP bound to Rabs 2A, 8A, 8B, 10, and 14” and the “hydrolysis of Rab-bound [α^32P]GTP” value [4] was “the GAP domain markedly stimulated the hydrolysis of [α^32P]GTP bound to Rabs 2A, 8A, 8B, 10, and 14”. The “GAP activity in the presence of a 10-fold molar excess of GST as carrier protein” value [5] was “the presence of excess GST did not inhibit the GAP activity”, the “GAP assay with GST-GAP domain attached to glutathione beads” value [5] was “the same molar amount of the GST-GAP domain attached to glutathione beads showed the expected activity against Rab14” and the “hydrolysis of Rab-bound [α^32P]GTP” value [5] was “the GAP domain markedly stimulated the hydrolysis of [α^32P]GTP bound to Rabs 2A, 8A, 8B, 10, and 14”. The kcat/Km [5] was “a kcat/Km value of 0.2 min^-1 µmolar^-1”, the “rate of hydrolysis of the bound [α^32P]GTP with 130 nM GST-GAP domain” value [5] was “approximately 3% per minute with 130 nM GST-GAP domain” and the “hydrolysis of Rab-bound [α^32P]GTP” value (GST-Rab2A [GST: P08515] [6]) was “the GAP domain markedly stimulated the hydrolysis of [α^32P]GTP bound to Rabs 2A, 8A, 8B, 10, and 14”.

B3: recombinant GAP domain without GST (protein)
chain: GASRDELQSRKVKLDYEEVGACQKEVLITWDKKLLNCRAKIRCDMEDIHTLLKEGVPKSRRGEIWQFLALQYRLRHRLPNKQQPPDISYKELLKQLTAQQHAILVDLGRTFPTHPYFSVQLGPGQLSLFNLLKAYSLLDKEVGYCQGISFVAGVLLLHMSEEQAFEMLKFLMYDLGFRKQYRPDMMSLQIQMYQLSRLLHDYHRDLYNHLEENEISPSLYAAPWFLTLFASQFSLGFVARVFDIIFLQGTEVIFKVALSLLSSQETLIMECESFENIVEFLKNTLPDMNTSEMEKIITQVFEMDISKQLHAYEVEYHVLQDELQESSYSCEDSETLEKLERANSQLKRQNMDLLEKLQVAHTKIQALESNLENLLTRETKMKSLIRTLEQEKMAYQKTVEQLRKLLPADALANCDLLLRDLNCNPNNKAKIGNKP
For B3, the “GAP activity compared with that of GST-GAP domain” value [5] was “no difference was observed”.

Source: US20080268487
